The stoichiometry N is the number of molecules, sites or subunits per partner or assembly.

The values that follow come from PMC13365404.

This experiment concerns the target EBOV GP ectodomain for structural work (EBOV Mayinga, residues 33-651, mucin-like domain deleted, double Strep-tag) (Orthoebolavirus zairense (Ebola virus, EBOV), Mayinga) (UniProt Q05320). The experiment is described as follows: cryo-EM structure.

“EBOV GP ectodomain for structural work (EBOV Mayinga, residues 33-651, mucin-like domain deleted, double Strep-tag) (from UniProt Q05320 33-651) (domain or fragment)” yielded a stoichiometry N of 3.
